This assay has as its target host cell proteins. The assay can be described thus: microtiter plate column chromatography, Bradford assay; fraction of injected protein bound.

For the substance “rProtein A Sepharose FF (from UniProt P38507 37-327)”, the Bound was 0%.

The values above are taken from WO2011104307A2.
